# B1: Homo sapiens regulatory factor X, 2 (RFX2): FIT interacting protein isolated from a human brain cDNA library (protein)
# chain: MQNSEGGADSPASVALRPSAAAPPVPASPQRVLVQAASSNPKGAQMQPISLPRVQQVPQQVQPVQHVYPAQVQYVEGGDAVYTNGAIRTAYTYNPEPQMYAPSSTASYFEAPGGAQVTVAASSPPAVPSHSMVGITMDVGGSPIVSSAGAYLIHGGMDSTRHSLAHTSRSSPATLEMAIENLQKSEGITSHKSGLLNSHLQWLLDNYETAEGVSLPRSSLYNHYLRHCQEHKLDPVNAASFGKLIRSVFMGLRTRRLGTRGNSKYHYYGIRLKPDSPLNRLQEDTQYMAMRQQPMHQKPRYRPAQKTDSLGDSGSHSGLHSTPEQTMAVQSQHHQQYIDVSHVFPEFPAPDLGSFLLQDGVTLHDVKALQLVYRRHCEATVDVVMNLQFHYIEKLWLSFWNSKASSSDGPTSLPASDEDPEGAVLPKDKLISLCQCDPILRWMRSCDHILYQALVEILIPDVLRPVPSTLTQAIRNFAKSLEGWLTNAMSDFPQQVIQTKVGVVSAFAQTLRRYTSLNHLAQAARAVLQNTSQINQMLSDLNRVDFANVQEQASWVCQCEESVVQRLEQDFKLTLQQQSSLDQWASWLDSVVTQVLKQHAGSPSFPKAARQFLLKWSFYSSMVIRDLTLRSAASFGSFHLIRLLYDEYMFYLVEHRVAEATGETPIAVMGEFNDLASLSLTLLDKDDMGDEQRGSEAGPDARSLGEPLVKRERSDPNHSLQGI
# modifications: left off: large carriers
# Assays:
# [1] = biological target: T1, FIT-NP (FIT N-terminal plus proline-rich region) (Homo sapiens, UniProt Q9BQI5); test: Yeast two-hybrid screen of human brain cDNA library, bait FIT-NP; assay type: binding; conditions: bait FIT-NP, human brain cDNA library; clones listed highest to lowest interacting strength
# T1 construct: expressed in transfected cells
# T1 sequence (Q9BQI5 with tags, fused parts or gaps I33M/P40L/N43H/V56A/I186T/P191L/T195L/E211G/Q212H/I230V/T240A/N255T/I269V/G270A/P271T/S276A/V280A/L285P/N289S/A308T/K311T/T318A/S335T/T339A/P340S/N342I/A348T/L352P/P357S/T358A/DEL367-367/L371P/I397L/D402E/F403C/A409E/P432S/P434T/T437A/R454S/S455C/T456S): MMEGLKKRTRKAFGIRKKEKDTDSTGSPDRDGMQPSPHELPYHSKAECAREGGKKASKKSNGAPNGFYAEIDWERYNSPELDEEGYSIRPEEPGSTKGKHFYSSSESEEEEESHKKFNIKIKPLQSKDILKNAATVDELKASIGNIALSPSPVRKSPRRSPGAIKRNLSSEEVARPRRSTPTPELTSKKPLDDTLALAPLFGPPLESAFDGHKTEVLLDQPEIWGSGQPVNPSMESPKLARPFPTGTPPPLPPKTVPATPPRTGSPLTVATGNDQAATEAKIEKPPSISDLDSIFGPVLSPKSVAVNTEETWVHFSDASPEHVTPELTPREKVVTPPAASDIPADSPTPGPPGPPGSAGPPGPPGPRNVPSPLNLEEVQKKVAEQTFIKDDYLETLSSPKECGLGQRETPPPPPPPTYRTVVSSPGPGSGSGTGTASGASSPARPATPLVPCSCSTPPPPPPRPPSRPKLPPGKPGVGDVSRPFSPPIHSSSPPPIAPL
# From the text: (§1) In order to perform these experiments, two truncated fragments of FIT were constructed to be used as baits in a yeast two-hybrid screen of a human brain cDNA library: one bait consisting of the N-terminal region plus the central proline-rich region, and the other bait consisting of the central proline-rich region alone. The inventors utilised a yeast two-hybrid system which incorporates modifications by Chevray and Nathans (1992), and Vidal et al. (1996) to screen a human brain cDNA library. FIT fragments were PCR amplified, purified and then cloned into an appropriate vector. Sense oligonucleotides for FIT-NP (5′-[…]-3′: SEQ ID NO:72), and FIT-PR (5′-[…]-3′: SEQ ID NO:73), with Sal1 restriction enzyme sites underlined, were used in conjunction with a common antisense oligonucleotide (5′-[…]-3′: SEQ ID NO:74), with the Not1 restriction enzyme site underlined.
# (§2) Human brain cDNA inserts were prepared and cloned into the expression vector according to manufacturer's instructions.
# [2] = biological target: T2, FIT-PR (FIT proline-rich region) (Homo sapiens, UniProt Q9BQI5); test: Yeast two-hybrid screen of human brain cDNA library, bait FIT-PR; assay type: binding; conditions: clones listed highest to lowest interacting strength
# T2 construct: expressed in transfected cells
# T2 sequence (Q9BQI5 with tags, fused parts or gaps N255T/I269V/G270A/P271T/S276A/V280A/L285P/N289S/A308T/K311T/T318A/S335T/T339A/P340S/N342I/A348T/L352P/P357S/T358A/DEL367-367/L371P/I397L/D402E/F403C/P432S/P434T/T437A/R454S/S455C/T456S): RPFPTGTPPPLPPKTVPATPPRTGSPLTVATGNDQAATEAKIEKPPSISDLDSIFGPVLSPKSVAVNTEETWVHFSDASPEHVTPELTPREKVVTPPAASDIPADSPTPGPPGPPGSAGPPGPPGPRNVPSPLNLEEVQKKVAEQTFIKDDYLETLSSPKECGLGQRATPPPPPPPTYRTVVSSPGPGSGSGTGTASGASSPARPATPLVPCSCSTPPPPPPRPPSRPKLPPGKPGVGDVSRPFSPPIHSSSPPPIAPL
# From the text: as §1, with “To investigate the mechanism by which FIT regulates energy balance, neural proteins that interact with FIT were identified. In” for “In”
# as §2
molecule,measurement,setting,value
B1,Number of clones,[1],10
same,Number of clones,[2],1

# Reference: US20080105961A1, “Ligands of the Molecule Fit (Agt-121) and their Pharmaceutical Use” (priority 2004, published 2008)
